Test results as given in article PMC10544979.

Assays:
[1] = target: human TLR4 (hTLR4) on HEK-Blue-hTLR4 reporter cells (human) (UniProt O00206)
[2] = target: mouse TLR4 (mTLR4) on HEK-Blue-mTLR4 reporter cells (mouse) (UniProt Q9QUK6); settings: for log (EC50) of NF-kB-driven SEAP secretion by HEK-Blue-mTLR4 reporter cells, 48 h, dose-response up to 2540 nM: scale: log
UniProt Q9QUK6, sequence (Q9QUK6 26-835): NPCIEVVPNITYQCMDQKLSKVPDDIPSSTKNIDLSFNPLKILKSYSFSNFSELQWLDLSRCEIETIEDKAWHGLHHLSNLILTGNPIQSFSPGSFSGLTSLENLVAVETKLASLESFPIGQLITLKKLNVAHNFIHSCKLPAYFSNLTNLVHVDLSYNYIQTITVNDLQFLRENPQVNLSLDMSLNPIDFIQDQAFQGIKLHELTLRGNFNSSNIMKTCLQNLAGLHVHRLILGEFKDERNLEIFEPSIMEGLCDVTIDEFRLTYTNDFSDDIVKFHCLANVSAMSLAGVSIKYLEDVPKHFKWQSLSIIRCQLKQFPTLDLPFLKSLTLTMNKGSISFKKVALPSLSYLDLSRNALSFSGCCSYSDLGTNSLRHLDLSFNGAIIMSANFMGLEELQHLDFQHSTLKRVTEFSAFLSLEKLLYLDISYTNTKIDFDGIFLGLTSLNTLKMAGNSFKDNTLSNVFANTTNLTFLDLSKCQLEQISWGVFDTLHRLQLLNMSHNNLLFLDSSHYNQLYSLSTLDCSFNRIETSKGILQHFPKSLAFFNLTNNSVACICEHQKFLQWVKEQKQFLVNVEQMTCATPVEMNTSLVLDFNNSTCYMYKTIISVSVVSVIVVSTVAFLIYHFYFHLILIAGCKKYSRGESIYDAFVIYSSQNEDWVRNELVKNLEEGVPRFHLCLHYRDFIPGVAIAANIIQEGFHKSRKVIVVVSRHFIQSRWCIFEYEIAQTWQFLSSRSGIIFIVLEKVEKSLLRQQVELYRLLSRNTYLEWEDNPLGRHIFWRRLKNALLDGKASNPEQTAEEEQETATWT

UniProt O00206, sequence (O00206 24-839): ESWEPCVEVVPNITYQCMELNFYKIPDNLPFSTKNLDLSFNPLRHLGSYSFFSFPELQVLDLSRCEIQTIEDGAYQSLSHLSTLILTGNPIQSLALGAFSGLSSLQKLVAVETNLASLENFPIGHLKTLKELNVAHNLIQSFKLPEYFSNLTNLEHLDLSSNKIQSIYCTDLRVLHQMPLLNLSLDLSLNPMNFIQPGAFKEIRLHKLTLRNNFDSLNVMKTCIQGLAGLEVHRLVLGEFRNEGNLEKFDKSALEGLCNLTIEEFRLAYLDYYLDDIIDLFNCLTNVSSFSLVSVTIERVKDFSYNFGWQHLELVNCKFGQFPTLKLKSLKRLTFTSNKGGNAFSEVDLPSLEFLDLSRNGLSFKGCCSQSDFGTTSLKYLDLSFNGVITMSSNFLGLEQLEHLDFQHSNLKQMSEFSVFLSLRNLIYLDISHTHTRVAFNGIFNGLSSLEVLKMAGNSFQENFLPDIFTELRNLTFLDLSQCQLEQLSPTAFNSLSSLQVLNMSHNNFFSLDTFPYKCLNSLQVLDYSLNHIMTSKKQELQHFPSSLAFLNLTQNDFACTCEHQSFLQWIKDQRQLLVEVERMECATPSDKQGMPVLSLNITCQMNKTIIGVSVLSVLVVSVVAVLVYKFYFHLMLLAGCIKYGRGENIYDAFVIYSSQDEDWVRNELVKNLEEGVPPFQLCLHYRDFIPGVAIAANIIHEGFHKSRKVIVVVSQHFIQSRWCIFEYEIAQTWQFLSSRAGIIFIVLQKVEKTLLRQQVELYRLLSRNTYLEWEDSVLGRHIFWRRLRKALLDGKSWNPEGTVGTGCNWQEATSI

| Substance | activation of HEK-Blue-hTLR4 reporter cells (SEAP), dose-response up to 2,540 nM, 48 h, LPS = 100% [1] | maximum activation of HEK-Blue-mTLR4 reporter cells (SEAP), dose-response up to 2540 nM, 48 h, LPS plateau = 100% [2] | log (EC50) of NF-kB-driven SEAP secretion by HEK-Blue-mTLR4 reporter cells, 48 h, dose-response up to 2540 nM [2] |
| --- | --- | --- | --- |
| Fissurella latimarginata hemocyanin (FLH) (natural protein) | 25 % of LPS | 80 % of LPS | 0.1 |
| recombinant surface immunogenic protein (rSIP) from Streptococcus agalactiae (natural protein) | 90 % of LPS | 80 % of LPS | -1 |
